Molecular target: T1, MOC-Arg-Ala-Glu-Leu-Gln-Gly-Pro-Tyr-Asp-Lys-DNP-NH2
T1 chain: RAELQGPYDK

B1: Human Rhinovirus serotype 1A 3C Protease (protein)
chain: GPEEEFGRSILKNNTCVITTGNGKFTGLGIHDRILIIPTHADPGREVQVNGVHTKVLDSYDLYNRDGVKLEITVIQLDRNEKFRDIRKYIPETEDDYPECNLALSANQDEPTIIKVGDVVSYGNILLSGNQTARMLKYNYPTKSGYCGGVLYKIGQILGIHVGGNGRDGFSAMLLRSYFTDTQ
Km (fluorescence resonance energy transfer protease activity assay): with a Km value of 16.8 µM

From patent publication US20100143888
